Test results reported in article PMC1634882.

Key:
[1] = target: PorA in cell envelopes of N. meningitidis strain HB-1 (N. meningitidis (endogenous in HB-1)) (UniProt E6MZM0); assay: semi-native SDS-PAGE; cell envelopes of N. meningitidis HB-1 or of E. coli expressing PorA or PorA-Q, samples not boiled, blot probed with anti-PorA antibody MN5C11G
[2] = target: Omp85 from Escherichia coli, refolded in vitro from inclusion bodies (E. coli) (UniProt P0A940)
[3] = target: Omp85 from Escherichia coli, refolded in vitro from inclusion bodies (E. coli) (UniProt P0A940); remark: listed apart in the source
[4] = target: PorA-Q mutant protein (penultimate Lys of PorA substituted by Gln) expressed in E. coli (N. meningitidis) (UniProt E6MZM0); assay: semi-native SDS-PAGE; cell envelopes of N. meningitidis HB-1 or of E. coli expressing PorA or PorA-Q, samples not boiled, blot probed with anti-PorA antibody MN5C11G

Substance: PorA in cell envelopes of N. meningitidis strain HB-1 (from UniProt E6MZM0 20-331) (natural protein)
- stoichiometry N [1]: 3

Substance: denatured E. coli PhoE porin (from UniProt P02932 22-351) (natural protein)
- increase in conductivity per 0.12-nS Omp85 channel in planar lipid bilayers (voltage ramps); dose-dependent opening at pM concentrations of denatured PhoE, value at 80 pM [2]: 0.067 nS
- percent increase in conductivity per 0.12-nS Omp85 channel upon addition of 80 pM denatured PhoE [2]: 56 to 58%

Substance: synthetic peptide corresponding to the C-terminal 12 amino acid residues of PhoE (CterPhoE)
- increase in conductivity per 0.12-nS Omp85 channel in planar lipid bilayers; dose-dependent opening at μM concentrations of the peptide, value at 96 μM [3]: 0.6 nS

Substance: PorA-Q mutant protein (penultimate Lys of PorA substituted by Gln) expressed in E. coli (from UniProt E6MZM0 20-331) (natural protein)
- stoichiometry N [4]: 3

Substance: maltoporin LamB from E. coli, denatured (from UniProt P02943 26-446) (natural protein)
- increase in conductivity per 0.12-nS Omp85 channel in planar lipid bilayers (voltage ramps) upon addition of 80 pM denatured LamB [2]: 0.069 nS
- percent increase in conductivity per 0.12-nS Omp85 channel upon addition of 80 pM denatured LamB [2]: 56 to 58%
